Our source for the IC50 values is patent publication US6673770B1, “Peptides for the treatment, prophylaxis, diagnosis and monitoring of autoimmune diseases” (Upither B.V., priority 1998, dated 2004).

This assay addresses MHC class II RT1.B^L (Lewis rat), isolated molecules (rat (Lewis)).

pIC50: −log10 of the molar value.

The substance mycobacterial hsp65 180-188 peptide … had a pIC50 of 4.19 to 4.49.
